A protein production outcome set (Wang et al. 2014)

Assay: label from the status in PepcDB records

Sequence	protein production
MKVKKYDQFNESCYQAQLDNGLTVTLLPKAGYHKTYATFTTNYGSIDNTFVPAGSTEMQRFPDGIAHFLEHKMFEKADHDAFQIFGQYGASANAFTSFTKTSYLFSATRHLQDNLMTLLDFVQDPYFTPATVDKEKGIIGQEIEMYDDDPSWRLYFGMIGNLYPNHPLQYDIAGTTESIAKITADDLYAAYRTFYHPENMTLFVVGNFDPDEVLGWITTNQATKKFAAFQPIERKIPETATDGHDIIPYRTIDMPVNRAKSIVGVKGLLPIEAGAAALKYRAAVNVLLELLFGDTSADYLRLYDQGIIDDTFGYDFELQSGFNFVTFSGETDDPAQFDAAIIDVLENWRTAVVGQEAALALVKKEMIGRVVFMANSLEAIANRYDQRLFGTATIFDEPGIIDQLTLADLQTVAEQLLTSQAISEYQIRPQAKS	failed
MKVKSPLEVYNYLPRTNCGECGFDTCMSFAAHILDRSVTPLDCKPLVRDAEKDPKVKKKLEELLELTAPEIAEVVIGVGENAVKIGGEEVLHRHELTFFNPTGFFYDVWDTMDDKALEERCDRVVSYKKFYVGNFLTLDGFAVRCTSGDPKRYREVVKKVASYGKPLILVALDSECMKAALEEVADQRPLMYAATEGNWKEFLKLALEYKVPVTLRAKDLDLLKSMAVTFKQAGVKDIVLDPVTEPLGEGLKGTFERVIQLRRTAIAGQDKDVAYPIMITPIAAWLIEGDDVTKSYWEAVIASIFIVKYGDVMIFRSIDQHVVMPTITLRFNIYTDPRTPVQVEPGLRAINDPGPDDPVFITTNFALTYYTVESDLTSGGIKGWLLVLNTEGLGVEVSVAGGQFTASKVKELIEETKIEEKVNHRYLVIPGLAARLQGAIEDETGWKVLVGPMDSGRIKGWLEKNWPPKE	not failed
MKVLGISCSPRPGQTTDRLVQEVLNNIEAPTEFVSLSGRRIGPCLGCLGCVADNVCKVRDDMGELRPLIVEADALVIGAPNYFGMLNGLAHCFLERLYQFRHQEGGALHGKLGVAVGVGSAMPDSAVRDIEKFFSFSRIEPVGNVTAIGPASCFNCGHGEECREGAIHRVFGPGTKITADLTPNLSKQPDSLTAARTLGEKLTQRLKQG	failed
MKVLGYGREKKVILEAPNYDNDCVLANILAAHYLSSFDPVRARSYALAAESRLGKATLYEKAVFEAVSYLLSENMDDDVALELHSKLLKKFPKDLLSWKRVETLCSYMGRHDLSLPLFRKILPQNEGQVYVNGMLAFCLIELGHLREAEEAARKGCEINENDSWAHHALCHVLQTECRFKEAVKFMEEHSDSWDSCSSLRFSHNWWHVAVCYLEGGSHISKVEEVYDHQMWKELEKDDAVARDVYTDALGLLLRLDTRGKLDDGFQDRLEKLADSLTDKAMWYQDWLFDITTIWALSKVEKTSLAHELLEGLKSRTSAMNPKKQKLMQKAILLAEAVYEYGKGNYEIALELLGLDFDAANYKVIGGSGLQMDVFNEIWYKLLLLNGKSSTGTLLKNTIISIYFGYIFVFSATNSAFTTPEPAAIEVLEKVTKQRDGAPFLWRLLEESYSMEGKEKAGISAGKKAKALESSYFKSA	failed
MKVLILGGGYTGQRLAQLLAAQSIPVLATTRSGQWPLDEPCVTFDAGSTPLLLPDPAALAGVTHVLSTIPPLGDGGDPVLSTLLPTLQYLSLQWCGYLSTTGVYGDTQGAWVDEDSPLQSTNRRSQQRIAIEAQWLASGLPAHIFRLPGIYGPGRSSFDRLRRGDNQRLLKPGHVFCRIHVDDIAAALWASLQQPNPGRIYNVSDDFPCEPALLIEAAAQLMGVELPPPLPVDAVELSPMAASFWSECRRVRNDRLKQELGVQLRYPSYREGLAAIWAAELEHHHHHH	failed
MKVLRLGIVFQLLFVLLLTVGNFARIFIIDHYSVYPIAFFELFLGIGSLSCGVYGLIKTEKPILSLWLICFGLLICVFFIVVYLLPEGDIPPEITWFYSE	failed
MKVLSYLKNFYLFLAIGAIMQASENMGSQHQKTDERVIYLAGGCFWGLEAYMERIYGVIDASSGYANGKTSSTNYEKLHESDHAESVKVIYDPKKISLDKLLRYYFKVVDPVSVNKQGNDVGRQYRTGIYYVNSADKEVIDHALKALQKEVKGKIAIEVEPLKNYVRAEEYHQDYLKKHPSGYCHIDLKKADEVIVDDDKYTKPSDEVLKKKLTKLQYEVTQNKHTEKPFENEYYNKEEEGIYVDITTGEPLFSSADKYDSGCGWPSFSKPINKDVVKYEDDESLNRKRIEVLSRIGKAHLGHVFNDGPKELGGLRYCINSAALRFIPLKDMEKEGYGEFIPYIKKGELKKYINDKKSH	failed
MKVLVIGNGGREHALAWKAAQSPLVETVFVAPGNAGTALEPALQNVAIGVTDIPALLDFAQNEKIDLTIVGPEAPLVKGVVDTFRAAGLKIFGPTAGAAQLEGSKAFTKDFLARHKIPTAEYQNFTEVEPALAYLREKGAPIVIKADGLAAGKGVIVAMTLEEAEAAVHDMLAGNAFGDAGHRIVIEEFLDGEEASFIVMVDGEHVLPMATSQDHKRVGDKDTGPNTGGMGAYSPAPVVTDDVHQRTMERIIWPTVKGMAAEGNTYTGFLYAGLMIDKQGNPKVIEFNCRFGDPETQPIMLRMKSDLVELCLAACESKLDEKTSEWDERASLGVVMAAGGYPGDYRTGDVIHGLPLEEVAGGKVFHAGTKLADDEQVVTNGGRVLCVTALGHTVAEAQKRAYALMTDIHWDDCFCRKDIGWRAIEREQN	failed
MKVNVSCSSVQTTIDILEENQGEDESILTLGQLRDRIATDNDVDVETMKLLHRGKFLQGADDVSLSTLNFKENDKIIVMGGKNALVDDAGFKMLMQYEKHNLSNLQKAYDLNLRDVADLERGFLEKPKQVEMGKKLEKKVKYFNEEAERHLETLDGMNIITETTPENQAKRNREKRKTLVNGIQTLLNQNDALLRRLQEYQSVLNGDIPE	not failed
MKVSDILTVAIRLEEEGERFYRELSEHFNGEIKKTFLELADQERIHAEIFRKMSDQENWDEVDSYLAGYAFYEVFPDTSEILRRKDLTLKEVLDIAISVEKDSIILYYELKDGLVNSDAQKTVKKIIDQEKEHLRKLLEMKREST	not failed
